Patent US20190352395A1 (REDWOOD BIOSCIENCE, published 2019)
Positions count from the first letter of the chain named.

T1: CD22-Fc (R&D Systems Cat. No. 1968SL) (human, UniProt P20273 20-687)
T1 construct: Bought reagent; also called CD22 antigen; huCD22-Fc; not shown: Fc part of the bought fusion
T1 sequence (looked up): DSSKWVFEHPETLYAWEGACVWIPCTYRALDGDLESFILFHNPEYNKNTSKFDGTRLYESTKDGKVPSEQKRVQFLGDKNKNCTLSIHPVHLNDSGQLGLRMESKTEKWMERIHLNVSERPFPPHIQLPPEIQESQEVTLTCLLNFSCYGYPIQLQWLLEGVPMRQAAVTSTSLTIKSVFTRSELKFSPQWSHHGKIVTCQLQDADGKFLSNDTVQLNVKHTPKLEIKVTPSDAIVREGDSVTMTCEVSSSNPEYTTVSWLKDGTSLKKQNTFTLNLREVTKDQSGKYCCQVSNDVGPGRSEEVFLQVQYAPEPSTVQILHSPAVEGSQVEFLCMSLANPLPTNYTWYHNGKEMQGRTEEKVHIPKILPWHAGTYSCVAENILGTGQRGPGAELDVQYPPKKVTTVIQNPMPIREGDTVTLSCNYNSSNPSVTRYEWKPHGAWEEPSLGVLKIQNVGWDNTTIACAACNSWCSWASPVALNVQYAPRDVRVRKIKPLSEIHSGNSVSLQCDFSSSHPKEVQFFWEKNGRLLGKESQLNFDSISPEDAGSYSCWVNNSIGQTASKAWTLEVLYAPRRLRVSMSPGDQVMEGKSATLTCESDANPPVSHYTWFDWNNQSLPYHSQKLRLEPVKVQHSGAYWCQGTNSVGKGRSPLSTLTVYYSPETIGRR

B1: humanized RFB4 antibody VH6/VK2 (antibody, human IgG1, V domains shown)
VH: EVQLVESGGGLVKPGGSLKLSCAASGFAFSIYDMSWVRQAPGKGLEWVAYISSGGGTTYYPDTVKGRFTISRDNAKNSLYLQMSSLRAEDTAMYYCARHSGYGSSYGVLFAYWGQGTLVTVSS
VL: DIQMTQSPSSLSASVGDRVTITCRASQDISNYLNWYQQKPGKAVKLLIYYTSILHSGVPSRFSGSGSGTDYTLTISSLQPEDFATYFCQQGNTLPWTFGGGTKVEIK
B2: humanized RFB4 antibody VH3/VK2 (antibody, human IgG1, V domains shown)
VH: B1 VH with S78T
VL: B1 VL
B3: humanized RFB4 antibody VH5/VK2 (antibody, human IgG1, V domains shown)
VH: B1 VH with S84N
VL: B1 VL
B4: humanized RFB4 antibody VH4/VK4 (antibody, human IgG1, V domains shown)
VH: B1 VH with K19R
VL: B1 VL with L11V, V44P
B5: humanized RFB4 antibody VH4/VK2 (antibody, human IgG1, V domains shown)
VH: B1 VH with K19R
VL: B1 VL
B6: humanized RFB4 antibody VH5/VK1 (antibody, human IgG1, V domains shown)
VH: B1 VH with S84N
VL: B1 VL with P80Q
B7: humanized RFB4 antibody VH6/VK1 (antibody, human IgG1, V domains shown)
VH: B1 VH
VL: B1 VL with P80Q
B8: humanized RFB4 antibody VH3/VK4 (antibody, human IgG1, V domains shown)
VH: B1 VH with S78T
VL: B1 VL with L11V, V44P
B9: humanized RFB4 antibody VH5/VK4 (antibody, human IgG1, V domains shown)
VH: B1 VH with S84N
VL: B1 VL with L11V, V44P
B10: humanized RFB4 antibody VH3/VK1 (antibody, human IgG1, V domains shown)
VH: B1 VH with S78T
VL: B1 VL with P80Q
B11: humanized RFB4 antibody VH4/VK1 (antibody, human IgG1, V domains shown)
VH: B1 VH with K19R
VL: B1 VL with P80Q
B12: humanized RFB4 antibody VH6/VK4 (antibody, human IgG1, V domains shown)
VH: B1 VH
VL: B1 VL with L11V, V44P

Molecular target: T1, CD22-Fc (R&D Systems Cat. No. 1968SL)
Assay: competition ELISA on coated CD22-Fc; competitor biotinylated chimeric RFB4
Experimental: 96 well MaxiSorp plates (Nunc) were coated with 1.0 μg/ml CD22-Fc (R&D Systems Cat. No. 1968SL) in Dulbecco's PBS (PAA Laboratories, Yeovil, UK) (60 μl final volume) at 4° C. overnight. Plates were blocked with Dulbecco's PBS-2% BSA for 1 hour at room temperature. Plates were washed 3 times with wash buffer (0.05% Tween20 in Dulbecco's-PBS). […] All samples were tested in duplicate. Plates were incubated for 1 h at room temperature and washed 3 times with wash buffer. 60 μl of a 1 in 1000 dilution of Streptavidin horse radish peroxidase (HRP) (Sigma-Aldrich) was added and incubated for 1 hour at room temperature. Plates were washed 3 times with wash buffer and 60 μl of 3,3′,5,5′-tetramethybenzidine (TMB) substrate (Invitrogen) was added and incubated at room temperature in the dark to allow the colour to develop. The reaction was stopped by adding 50 μl of 3M HCl. Plates were read at 450 nm using Dynex plate reader.

Binder | IC50 relative to Chimeric RFB4 IgG1
B1 | 1 relative to Chimeric RFB4 IgG1
B2 | 1 relative to Chimeric RFB4 IgG1
B3 | 1 relative to Chimeric RFB4 IgG1
B4 | 1 relative to Chimeric RFB4 IgG1
B5 | 1.1 relative to Chimeric RFB4 IgG1
B6 | 0.9 relative to Chimeric RFB4 IgG1
B7 | 0.9 relative to Chimeric RFB4 IgG1
B8 | 1.1 relative to Chimeric RFB4 IgG1
B9 | 1 relative to Chimeric RFB4 IgG1
B10 | 0.8 relative to Chimeric RFB4 IgG1
B11 | 0.9 relative to Chimeric RFB4 IgG1
B12 | 1 relative to Chimeric RFB4 IgG1
